For 1 substance, VAS self-rated pain results are on record in paper PMC4529466, “Intradermal insulin infusion achieves faster insulin action than subcutaneous infusion for 3-day wear” (Drug Delivery and Translational Research, 2015).

This series is described as follows: VAS self-rated pain perception of bolus delivery and daily infusion. In kind it is in vivo, human (T1DM patients). To be noted: ID compared to SC infusion. The procedure:
Patients rated bolus-associated pain immediately after insulin delivery for both meals and again each evening at approximately 6 PM after completion of the morning dosing and sampling cycles to rate overall discomfort from the infusion process during the preceding 24 h. The visual analog scale (VAS) utilized a standard validated 10-cm scale anchored by “no pain” (score 0) and “severe pain” (score 10) without inclusion of additional numerical or verbal descriptors to avoid clustering of scores around intermediate points. Scores were measured as absolute distant from origin. Within 1 h prior to device removal, patients completed a non-validated user acceptability questionnaire consisting of a set of standard multiple choice closed-ended questions covering acceptability of sensations for infusion sets application and operation, set satisfaction, willingness to use the respective infusion set again, and set preference. Responses were restricted to a 5-point scale generally ranging from extreme agreement/satisfaction to extreme disagreement/satisfaction depending upon the question. […]
Pharmacokinetic parameters were derived from baseline corrected blood insulin data. […] PK and PD endpoints were analyzed using a linear mixed effects model (ANOVA) with sequence, application route, meal, and day as factors along with interactions. […]

Regarding insulin aspart, the VAS self-rated pain result is recorded as “statistically greater for ID compared to SC infusion”.
